Holding throughout (assay): fluorescence polarisation
For experiment [1], the target named is T1, R56K SufS (E. coli, UniProt P77444 1-406, R56K, PLP cofactor (occupancy greater than 90%)).
T1 sequence: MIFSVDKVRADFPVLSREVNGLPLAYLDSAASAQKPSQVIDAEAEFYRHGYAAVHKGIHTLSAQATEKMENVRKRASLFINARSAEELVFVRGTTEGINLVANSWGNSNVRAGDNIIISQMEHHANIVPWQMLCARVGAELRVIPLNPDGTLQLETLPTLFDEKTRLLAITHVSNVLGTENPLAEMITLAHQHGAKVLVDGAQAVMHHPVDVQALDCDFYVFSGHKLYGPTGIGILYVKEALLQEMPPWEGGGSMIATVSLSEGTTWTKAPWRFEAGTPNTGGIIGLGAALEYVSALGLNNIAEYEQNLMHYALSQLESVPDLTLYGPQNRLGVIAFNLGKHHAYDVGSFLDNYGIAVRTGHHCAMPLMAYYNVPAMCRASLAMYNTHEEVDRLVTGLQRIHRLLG

Experiment [2] addresses T2, R56A SufS (E. coli, UniProt P77444 1-406, R56A, PLP cofactor (occupancy greater than 90%)).
T2 sequence: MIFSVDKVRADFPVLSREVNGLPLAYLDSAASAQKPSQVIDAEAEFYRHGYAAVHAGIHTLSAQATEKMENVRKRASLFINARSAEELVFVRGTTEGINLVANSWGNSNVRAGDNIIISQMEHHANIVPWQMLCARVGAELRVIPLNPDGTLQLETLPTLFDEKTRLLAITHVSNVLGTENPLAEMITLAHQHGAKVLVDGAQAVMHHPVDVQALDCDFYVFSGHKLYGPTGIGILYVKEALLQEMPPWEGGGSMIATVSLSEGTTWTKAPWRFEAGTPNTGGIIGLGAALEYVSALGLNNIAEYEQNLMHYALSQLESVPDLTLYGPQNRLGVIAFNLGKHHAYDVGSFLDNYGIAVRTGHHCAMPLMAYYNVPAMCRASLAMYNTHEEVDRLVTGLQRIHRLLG

For experiment [3], the target named is T3, R359A SufS (E. coli, UniProt P77444 1-406, R359A, PLP cofactor (occupancy greater than 90%)).
T3 sequence: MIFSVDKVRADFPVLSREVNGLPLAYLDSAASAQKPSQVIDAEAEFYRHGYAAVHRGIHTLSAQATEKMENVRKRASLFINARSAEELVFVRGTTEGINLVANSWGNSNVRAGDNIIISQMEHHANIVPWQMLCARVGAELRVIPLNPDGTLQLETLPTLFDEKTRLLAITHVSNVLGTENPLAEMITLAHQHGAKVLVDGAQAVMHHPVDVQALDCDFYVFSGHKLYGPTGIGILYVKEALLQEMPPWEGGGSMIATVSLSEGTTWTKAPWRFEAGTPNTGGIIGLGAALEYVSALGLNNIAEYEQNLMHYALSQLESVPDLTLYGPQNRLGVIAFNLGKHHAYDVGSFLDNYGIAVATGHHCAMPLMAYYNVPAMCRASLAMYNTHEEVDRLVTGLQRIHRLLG

Experiment [4] deals with T4, WT SufS (E. coli, UniProt P77444 1-406, PLP cofactor attached to K226 as an internal aldimine).
T4 sequence: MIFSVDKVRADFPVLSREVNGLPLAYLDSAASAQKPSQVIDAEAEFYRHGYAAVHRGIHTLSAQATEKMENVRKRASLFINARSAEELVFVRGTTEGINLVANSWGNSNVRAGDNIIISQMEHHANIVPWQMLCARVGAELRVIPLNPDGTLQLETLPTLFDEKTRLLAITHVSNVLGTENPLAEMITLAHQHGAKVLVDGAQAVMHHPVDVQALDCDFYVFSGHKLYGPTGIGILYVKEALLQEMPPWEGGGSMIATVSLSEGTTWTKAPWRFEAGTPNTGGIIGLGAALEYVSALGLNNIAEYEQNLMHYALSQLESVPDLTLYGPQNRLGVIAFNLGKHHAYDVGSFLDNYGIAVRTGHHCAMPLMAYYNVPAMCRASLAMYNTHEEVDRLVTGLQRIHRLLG

Experiment [5] addresses T5, R359K SufS (E. coli, UniProt P77444 1-406, R359K, PLP cofactor (occupancy greater than 90%)).
T5 sequence: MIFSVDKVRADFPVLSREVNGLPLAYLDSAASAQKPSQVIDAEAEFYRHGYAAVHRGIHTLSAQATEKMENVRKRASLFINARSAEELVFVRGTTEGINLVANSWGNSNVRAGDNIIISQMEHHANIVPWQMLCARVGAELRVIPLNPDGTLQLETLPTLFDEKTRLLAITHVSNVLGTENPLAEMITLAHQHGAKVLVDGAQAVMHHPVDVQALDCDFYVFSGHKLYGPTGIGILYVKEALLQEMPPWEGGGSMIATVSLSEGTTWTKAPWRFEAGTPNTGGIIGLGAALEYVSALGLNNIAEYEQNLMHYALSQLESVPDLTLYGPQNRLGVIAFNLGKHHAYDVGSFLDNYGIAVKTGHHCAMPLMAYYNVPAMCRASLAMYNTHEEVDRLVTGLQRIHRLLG

In experiment [6] the target is T1, R56K SufS. This is another data set of the same source.
The target in experiment [7] is T2, R56A SufS. This is another data set of the same source.
Experiment [8] has as its target T3, R359A SufS. The source holds these as a separate data set.
For experiment [9], the target named is T4, WT SufS. This is another data set of the same source.
Experiment [10] concerns the target T5, R359K SufS. The source holds these as a separate data set.

Broadly, the Kd is the equilibrium constant for the complex coming apart. High values mean lower affinity, low ones higher affinity.

Like-named read-outs stand apart in the source and are kept apart here.

B1: BODIPY-FL labeled C51A/E107C SufE (natural protein, E. coli, UniProt P76194 1-138, looked up)
chain: MALLPDKEKLLRNFLRCANWEEKYLYIIELGQRLPELRDEDRSPQNSIQGAQSQVWIVMRQNAQGIIELQGDSDAAIVKGLIAVVFILYDQMTPQDIVNFDVRPWFCKMALTQHLTPSRSQGLEAMIRAIRAKAAALS
modifications: BODIPY FL maleimide label (labelling efficiency 60-80%)
Turning to B1, the equilibrium dissociation constant (Kd) is 2800 ± 300 nM in the experiment with R56K SufS [1]; 4000 ± 400 nM with R56A SufS [2]; 300 ± 100 nM with R359A SufS [3]; 200 ± 100 nM with WT SufS [4]; 2800 ± 300 nM with R359K SufS [5]; 8500 ± 1100 nM in the experiment with R56K SufS [6]. Besides, the Kd in the experiment with R56A SufS [7] is 5800 ± 900 nM; with R359A SufS [8], 900 ± 200 nM; in the experiment with WT SufS [9], 2500 ± 300 nM; in the experiment with R359K SufS [10] it was 4600 ± 500 nM.

These data come from publication PMC11507941 (bioRxiv, 2024).
